Measured values: the DeepSol protein solubility set

Experiment: soluble on expression in E. coli; label from the status in PepcDB or PDB records
For “MAHHHHHHMRPTFPALGSRAKGYENRVMVYAHRRHRAWYLPPKLAHARSPLANKSPDEYGNTWDPRTGVEWYHRLRRRGAYRHWPWARWNDDPVRQHQELSCRRTFSAAVTGANEGVPLWNYYAEVGQEYGLPSHFPLSFMAPFIHQYTSRAWSRKEIERHLKVVEERTGLRTIQQACDATSELLEWGEEEMGVVPHGLLQHVVMLAEDIVLQNKKKAYRKAAHERGILRTTTMERYYALPHLRTGPPMPTTLEQPSGEFPWGKFSTMVGGTRIHPLYRPDGFFKDNMYPA”, the “soluble on expression in E. coli” value was “not soluble”.
For “MAHHHHHHMRRIQLAFLTKLWQRRNCGSFNERALVQRTCEHIYCSSSAREQLRQLIHESSVENALRHLGEFSNDVSVLKGSAWLGQLSKAPDVVGRIAVILPQFEKWYVARKAPEKVTMHEPWDWYPKARFMRRRFVFHYGPTNSGKTHAALETLVKAKSGVYCAPLKALAAQVWKRIDASVPCDLLIGDERRFGGGAEHVSCTVEMTPIDYQIDVGVIDEVQMIADRDRGWAWTRALLGLPAREIHLCGEERAIPLIRKVLYKTHELQRLEVVPHKRLVPLEVSPSLDGDLRRIENGDTLVCFSRRAIFDMKKKLENISGMAPHCIYGSMPFSVREAQADAFNNGTRDVIEGKSGKKHVLISTDAIAYGLNMSIERIIFTSMRKFDGKQMVTLPQATILQVAGRAGRFGVLRSHKFGRCTTLDSNDFAVLCEAVNSRLPSLQKAGLLPTAEVLELYIRLREAEEGGRVTENNLASFYQRMREFSECCQASDLFFPCDLSRSLLQVAKELEAVTDLSLSDRILFCYVPLNDRGKETYDLLRAFGHDHAAGRHVVLRIDEEFERLVKQCDLVCSGDTRRAHQVLTRMEHLYRVAEMYCWLAWRFGKTFVHLETATALKERAALKMEEILQHL”, the “soluble on expression in E. coli” value was “not soluble”.
With “MAHHHHHHMRRTLALYKQGRSREPNVGRLLYGKRKNLVHHASEAKPSVTAVLAQTPTERLPVAVKHALQVKELHREQIATLLKQHRALRRFDRTEVIVQALRDAKQPLTSQHYCVLMAHANDERQTRRALQFWKDAVSEGKVNERLHGALMSTYRNAGNWRAAMRHCERMWRDQQVLDPLAAHAVMNACRRYGPWQMGLKVFSDAVQHGTKPNGVVYLELLRLIAQSKMPARWMYGLAILRALEASVEVTAGHYNAVLATMGGRNWEKGIELFHSMQVHNVQPSTETLNTVQQLHPHSVSHCIRCVAEAHALGMPITDTMYRNVLLNLFRMQLNNEATQFAEREYKLDCVDAGNPLTHTLSLSVAMVDALLSHPRPHDALLVYESFQDKIGDVVAAATRQLGTSGSLEQRWLVQGRVAVVDHNVLLSTTFESLIHHYDSVFVPFASVRLLVRRARENGHSVQGLHMKTTLRRIGLLLKREEWRMLRVLPYAHQLLAHTYLSEGGPASPEALKALREEAETQSLLPESPQTPTAVAKAVSAYGQALLRRLTPVGEAAEVAGAVRADQSGERGTEDAAKNLVIREAAGGAADTGASSLVSSKAWPAATAPFPMVLHSPRRITSVERVTAVAAMLKSLNPDAEVHVLSTNASQLAAVRHWNAVRVGVLLVPVHYPDQLRQMAPPALPISEGAVAAAMAAPGFRGPKPRL” the “soluble on expression in E. coli” value was “not soluble”.
In the case of “MAHHHHHHMRVLSGVELEAVNRVVEHLRCHPEDLHRNEFRELREYMASLGASIPPPPDTPDVSGVRKEANSDDEEEYVSEPDSQRCALEPVSDDDITAYDGTDPTPEDEERAMGLKAQAAELAADGDFDKAIELMGQALRIVPGKAMYWAQRASYFLKCTQPGAALQDANRALDLNPENVRALRVRGTVNRRLGKWEEALKDLSEAQAVDYDEGIDEILRFVQKRTNDRRQFQQRKKEAQRLRQEALRRQREHELREEEMKREQQQQRDQQQSGAGDFPGGAGGFPGGFPGGAGGGGMQSFMESLFQDQELAEAMKDPEVAAKLATLRSNPMAALQMMGDPKVGPLIQKMMSKAMGGSSPGSSPFGAGASAGATSHADAHHSDELD”, the “soluble on expression in E. coli” value is reported as “soluble”.
For “MAHHHHHHMSARMQFPLSQRRHTNIAVVRYSKNGVKLEIACYKNKVISYRSGTENRLDEVLQVERIFANVARGYLASEKEIQTVFGGEMTEAEAIRYMLDHGELQVAQQERAAEVDEMFKDIAVIISQKCINTKTQRPFPPQVVEQALRSIGAAVKLDQSVKKQALGLIHLLIDSDILPIARANMKIRCTTTSEAALEKLRGWCRDNDADVVSDSVTGKTSDGGSGNFGHALLLLMQPNLFRDLDHFVKEALPSGSTIHMVEAAVTEVGDSDVLLDANAVSLANAQPGRAEEEATMAGSRRAAAAPSSSSAGEVNRGCSDGRGGETGMSSNLGQGADNASNGQHQSDGEGKRGRTGKAKGTTRRGHRGRQSNNSDGDDLLDGSTDGAAEGGLGVDHDIAAGLQRLGLDPSHDLQDDSDDDGGRGRGSRGKKKKNASGTGGGPYQSQGAGGRKAGGGAAAVDDDDNAGKGKKGRKNAKSKKVAAAEKAKPGAEGAFSDSDEELMGNRKQRAKKQQETRMQQGGNDWHEEDFDYGEDEEAEVQLS”, the “soluble on expression in E. coli” value was “soluble”.
